Target: T1, Cys2-pilin-C (Streptococcus pyogenes serotype M1, UniProt Q9A1S2 18-299, N-terminal Cys2 linker attached to the shell surface of the nanocrystal (QD or dot-in-rod HNC) during shell synthesis)
T1 construct: Tested only as a nanocrystal conjugate; also called QD-pilin-C; CdSe/CdS QD-pilin-C conjugates
T1 sequence: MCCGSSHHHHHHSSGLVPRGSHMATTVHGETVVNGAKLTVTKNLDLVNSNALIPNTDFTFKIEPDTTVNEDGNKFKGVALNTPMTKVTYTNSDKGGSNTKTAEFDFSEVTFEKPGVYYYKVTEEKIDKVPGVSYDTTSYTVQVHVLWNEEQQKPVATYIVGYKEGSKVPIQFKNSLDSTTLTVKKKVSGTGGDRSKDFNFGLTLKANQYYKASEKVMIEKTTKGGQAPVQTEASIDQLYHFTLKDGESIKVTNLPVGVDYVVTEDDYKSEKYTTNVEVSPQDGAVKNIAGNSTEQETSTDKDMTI
Assay: TEM and HRTEM (FIGS. 11, 11A and 11B)

B1: CsgAHisTag amyloid fibrils (other)
chain: GVVPQYGGGGNHGGGGNNSGPNHHHHHHHSELNIYQYGGGNSALALQTDARNSDLTITQHGGGNGADVGQGSDDSSIDLTQRGFGNSATLDQWNGKNSEMTVKQFGGGNGAAVDQTASNSSVNVTQVGFGNNATAHQYHHHHHHH
notes: Fibrils composed only of CsgAHisTag subunits, used as a control for QD-pilin-C
B1: no binding.

From patent US20160238591A1 (MIT, published 2016)
